Measured values as given in US6348327.

T1: human H2 prorelaxin (wild-type), P04090
T1 chain: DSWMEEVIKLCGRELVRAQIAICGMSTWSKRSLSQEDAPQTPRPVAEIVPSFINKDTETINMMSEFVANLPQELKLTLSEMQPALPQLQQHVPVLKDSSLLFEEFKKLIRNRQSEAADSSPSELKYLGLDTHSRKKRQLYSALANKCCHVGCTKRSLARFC

T2: prorelaxin mutant Rx 1.4, P04090
T2 chain: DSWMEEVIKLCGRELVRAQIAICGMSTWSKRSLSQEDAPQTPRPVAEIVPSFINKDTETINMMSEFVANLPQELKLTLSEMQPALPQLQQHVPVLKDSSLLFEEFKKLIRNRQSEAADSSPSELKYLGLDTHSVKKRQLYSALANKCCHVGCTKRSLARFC

T3: prorelaxin mutant Rx 3.2, P04090
T3 chain: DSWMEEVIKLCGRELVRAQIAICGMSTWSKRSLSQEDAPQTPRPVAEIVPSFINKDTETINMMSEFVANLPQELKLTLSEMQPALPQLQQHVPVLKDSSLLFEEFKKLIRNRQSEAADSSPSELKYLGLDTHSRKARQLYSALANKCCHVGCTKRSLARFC

T4: prorelaxin mutant Rx 2.4, P04090
T4 chain: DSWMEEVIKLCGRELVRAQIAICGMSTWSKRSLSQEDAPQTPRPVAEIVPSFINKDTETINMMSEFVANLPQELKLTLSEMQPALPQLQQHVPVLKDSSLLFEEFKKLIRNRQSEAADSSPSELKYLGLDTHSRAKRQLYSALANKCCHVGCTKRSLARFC

T5: prorelaxin mutant Rx8.6, P04090
T5 chain: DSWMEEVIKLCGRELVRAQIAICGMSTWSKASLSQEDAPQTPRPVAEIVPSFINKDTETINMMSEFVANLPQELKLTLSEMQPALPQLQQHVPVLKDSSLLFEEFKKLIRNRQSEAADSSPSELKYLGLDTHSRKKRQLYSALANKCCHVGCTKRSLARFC

T6: prorelaxin mutant Rx7.2, P04090
T6 chain: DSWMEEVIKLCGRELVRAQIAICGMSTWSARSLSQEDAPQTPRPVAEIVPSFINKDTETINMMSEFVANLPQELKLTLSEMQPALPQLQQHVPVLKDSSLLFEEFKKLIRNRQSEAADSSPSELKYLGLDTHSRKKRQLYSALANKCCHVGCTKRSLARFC

T7: prorelaxin mutant Rx 4.3, P04090
T7 chain: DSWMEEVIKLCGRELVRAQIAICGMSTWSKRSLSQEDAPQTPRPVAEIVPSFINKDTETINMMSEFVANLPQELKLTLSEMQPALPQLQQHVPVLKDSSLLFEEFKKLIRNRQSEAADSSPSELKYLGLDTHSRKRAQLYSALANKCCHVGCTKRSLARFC


Tests used:
[1] = biological target: T1, human H2 prorelaxin (wild-type), P04090
[2] = biological target: T2, prorelaxin mutant Rx 1.4, P04090
[3] = biological target: T3, prorelaxin mutant Rx 3.2, P04090
[4] = biological target: T4, prorelaxin mutant Rx 2.4, P04090
[5] = biological target: T5, prorelaxin mutant Rx8.6, P04090
[6] = biological target: T6, prorelaxin mutant Rx7.2, P04090
[7] = biological target: T7, prorelaxin mutant Rx 4.3, P04090

Protein	cleavage of prorelaxin by murine prohormone convertase 2 [1]	cleavage of prorelaxin mutant by murine prohormone convertase 2 [2]	cleavage of prorelaxin mutant by murine prohormone convertase 2 [3]	cleavage of prorelaxin mutant by murine prohormone convertase 2 [4]	cleavage of prorelaxin mutant by murine prohormone convertase 2 [5]	cleavage of prorelaxin mutant by murine prohormone convertase 2 [6]	cleavage of prorelaxin mutant by murine prohormone convertase 2 [7]	processing of prorelaxin mutant by murine prohormone convertase 1 [2]	processing of prorelaxin mutant by murine prohormone convertase 1 [3]	processing of prorelaxin mutant by murine prohormone convertase 1 [4]	processing of prorelaxin mutant by murine prohormone convertase 1 [5]	processing of prorelaxin mutant by murine prohormone convertase 1 [6]	processing of prorelaxin mutant by murine prohormone convertase 1 [7]
murine prohormone convertase 2 (protein) GYRDINEIDINMNDPLFTKQWYLFNTGQADGTPGLDLNVAEAWELGYTGKGVTIGIMDDGIDYLHPDLAYNYNADASYDFSSNDPYPYPRYTDDWFNSHGTRCAGEVSAAASNNICGVGVAYNSKVAGIRMLDQPFMTDIIEASSISHMPQLIDIYSASWGPTDNGKTVDGPRELTLQAMADGVNKGRGGKGSIYVWASGDGGSYDDCNCDGYASSMWTISINSAINDGRTALYDESCSSTLASTFSNGRKRNPEAGVATTDLYGNCTLRHSGTSAAAPEAAGVFALALEANLDLTWRDMQHLTVLTSKRNQLHDEVHQWRRNGVGLEFNHLFGYGVLDAGAMVKMAKDWKTVPERFHCVGGSVQNPEKIPPTGKLVLTLKTNACEGKENFVRYLEHVQAVITVNATRRGDLNINMTSPMGTKSILLSRRPRDDDSKVGFDKWPFMTTHTWGEDARGTWTLELGFVGSAPQKGLLKEWTLMLHGTQSAPYIDQVVRDYQSKLAMSKKQELEEELDEAVERSLQSILRKN	Murine prohormone convertase 2 does not cleave the wildtype prorelaxin	does not cleave any of the prorelaxin mutants with the exception of 4.3	does not cleave any of the prorelaxin mutants with the exception of 4.3	does not cleave any of the prorelaxin mutants with the exception of 4.3	does not cleave any of the prorelaxin mutants with the exception of 4.3	Mutant 7.2 is not cleaved by murine prohormone convertase 2	with the exception of 4.3 where there is some processing						
murine prohormone convertase 1 (protein) SVQKDSALDLFNDPMWNQQWYLQDTRMTAALPKLDLHVIPVWEKGITGKGVVITVLDDGLEWNHTDIYANYDPEASYDFNDNDHDPFPRYDLTNENKHGTRCAGEIAMQANNHKCGVGVAYNSKVGGIRMLDGIVTDAIEASSIGFNPGHVDIYSASWGPNDDGKTVEGPGRLAQKAFEYGVKQGRQGKGSIFVWASGNGGRQGDNCDCDGYTDSIYTISISSASQQGLSPWYAEKCSSTLATSYSSGDYTDQRITSADLHNDCTETHTGTSASAPLAAGIFALALEANPNLTWRDMQHLVVWTSEYDPLASNPGWKKNGAGLMVNSRFGFGLLNAKALVDLADPRTWRNVPEKKECVVKDNNFEPRALKANGEVIVEIPTRACEGQENAIKSLEHVQFEATIEYSRRGDLHVTLTSAVGTSTVLLAERERDTSPNGFKNWDFMSVHTWGENPVGTWTLKITDMSGRMQNEGRIVNWKLILHGTSSQPEHMKQPRVYTSYNTVQNDRRGVEKMVNVVEKRPTQKSLNGNLLVPKNSSSSNVEGRRDEQVQGTPSKAMLRLLQSAFSKNALSKQSPKKSPSAKLSIPYESFYEALEKLNKPSKLEGSEDSLYSDYVDVFYNTKPYKHRDDRLLQALMDILNEEN								Mutants 1.4 and 2.4 are processed the same as wild-type	mutant 3.2 is partially processed	Mutants 1.4 and 2.4 are processed the same as wild-type	mutants 7.2 and 8.6 are not processed	mutants 7.2 and 8.6 are not processed	Mutant 4.3 doesn't appear to be processed
